Laboratory results as given in WO2021229104A1 (dated 2021).

Tests used:
[1] = target: T1, recombinant biotinylated CD38 protein (Homo sapiens (Human), UniProt P28907 43-300, biotinylated (site not stated)); assay: BLI (Octet), biotinylated recombinant CD38 on streptavidin sensors, seven nanobody concentrations, 1:1 model
T1 construct: also called biotinylated CD38 antigen; biotin-labelled recombinant CD38 protein

[2] = target: T2, human CD38 receptor expressed on RPMI-8226 multiple myeloma cells and other CD38+ cell lines (human, UniProt P28907 1-300); assay: saturation binding of radiolabelled nanobody on CD38+ RPMI-8226 cells, 1 hour at 4 C
T2 construct: Endogenous CD38 on human cell lines; also called cyclic ADP-Ribose Hydrolase 1; ADPRC1

| Binder | Kd [1] | Kd [2] |
| --- | --- | --- |
| anti-CD38 nanobody 2F8 (Nb2F8) with C-terminal hexahistidine tag (VHH, also called sdAb 2F8) VHH: QVQLVESGGGSVQAGGSLRLSCAASGYTDSDYIMAWFRQAPGKEREVVATIYIGGTYIHYADSVKGRFTISRDNAENTVYLQMNNLKPEDTAMYYCAATKWRPFISTRAAEYNYWGQGTLVTVSS | 0.7 nM |  |
| 111In-DTPA-Nb2F8 (untagged Nb2F8 conjugated to CHX-A''-DTPA and labelled with Indium-111) (VHH, CHX-A''-DTPA conjugated to the free epsilon-amino groups of lysines; chelated Indium-111, also called m In-DTPA-Nb2F8; ul In-DTPA-Nb2F8) VHH: QVQLVESGGGSVQAGGSLRLSCAASGYTDSDYIMAWFRQAPGKEREVVATIYIGGTYIHYADSVKGRFTISRDNAENTVYLQMNNLKPEDTAMYYCAATKWRPFISTRAAEYNYWGQGTLVTVSS |  | 16.7 nM |
